Source: patent US20070111260A1

Key:
[1] = target: FcγRI and FcγRII on THP-1 cells; test: flow cytometry, antibody on THP-1 cells, FITC anti-human IgG Fab
[2] = target: human C1q (Quidel) (human) (UniProt P02745); test: ELISA: antibody captured on protein A/G, human C1q 2 ug/ml, anti-C1q detection
[3] = target: FcγRIIIA-streptavidin fusion protein (human; Streptomyces avidinii) (UniProt P08637); test: ELISA: antibody captured on protein A/G, FcγRIIIA-streptavidin (1:1000), biotin-HRP; the text speaks of IC50 values
FcγRIIIA-streptavidin fusion protein (human; Streptomyces avidinii), sequence (P08637 17-208 limits assumed): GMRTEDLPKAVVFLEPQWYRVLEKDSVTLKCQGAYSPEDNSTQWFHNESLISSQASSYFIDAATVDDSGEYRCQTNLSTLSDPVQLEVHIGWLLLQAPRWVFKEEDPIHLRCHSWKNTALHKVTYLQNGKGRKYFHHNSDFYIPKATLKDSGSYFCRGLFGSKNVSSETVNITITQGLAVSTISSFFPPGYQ

human C1q (Quidel) (human), sequence (P02745 23-245, chain 1 of 3): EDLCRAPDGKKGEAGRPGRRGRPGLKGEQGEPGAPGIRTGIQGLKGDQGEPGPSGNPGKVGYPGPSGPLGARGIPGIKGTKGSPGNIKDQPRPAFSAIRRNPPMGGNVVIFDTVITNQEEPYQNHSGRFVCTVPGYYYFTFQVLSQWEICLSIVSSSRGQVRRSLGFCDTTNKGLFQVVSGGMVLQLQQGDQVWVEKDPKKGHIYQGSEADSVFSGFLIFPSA
human C1q (Quidel) (human), sequence (P02746 28-253, chain 2 of 3, further chain): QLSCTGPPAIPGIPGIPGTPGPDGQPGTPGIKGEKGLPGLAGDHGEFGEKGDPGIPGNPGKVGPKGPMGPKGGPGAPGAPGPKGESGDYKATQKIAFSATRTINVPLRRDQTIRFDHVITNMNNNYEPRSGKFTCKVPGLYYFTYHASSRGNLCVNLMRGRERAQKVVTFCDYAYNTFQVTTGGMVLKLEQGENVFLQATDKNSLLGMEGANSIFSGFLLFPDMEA
human C1q (Quidel) (human), sequence (P02747 29-245, chain 3 of 3, further chain): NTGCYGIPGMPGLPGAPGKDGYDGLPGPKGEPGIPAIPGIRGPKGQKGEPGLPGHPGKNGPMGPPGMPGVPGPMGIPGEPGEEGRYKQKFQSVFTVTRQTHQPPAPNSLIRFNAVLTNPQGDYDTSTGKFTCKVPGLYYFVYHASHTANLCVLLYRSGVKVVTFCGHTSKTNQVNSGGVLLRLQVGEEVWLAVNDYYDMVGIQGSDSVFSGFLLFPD

12G3H11 anti-EphA2 antibody Fc variant K246R/L251E/T260R (soluble)
FcγRI&II Binding (fold less, against wild type) [1]: 9 fold
C1q binding (fold less, against wild type) [2]: 2 fold

12G3H11 anti-EphA2 antibody Fc variant W277T (soluble)
FcγRIIIA Binding [3]: 0.5 µg/mL

12G3H11 anti-EphA2 antibody Fc variant InE240/241 (soluble) (from UniProt P01857 1-330)
FcγRIIIA Binding [3]: 4.93 µg/mL
